Assay results as given in PMC11024467.

Biological target: IL-2Rα (UniProt P01589)
Assay: SPR; Biacore, IL-2 receptor proteins immobilised on a CM5 chip; wild-type IL-2 or variant 012 flowed over at stepwise concentrations for 120 s, then blank solution; 1:1 binding fit (steady state affinity for 001 on IL-2Rα)

IL-2Rα, sequence (P01589 22-272): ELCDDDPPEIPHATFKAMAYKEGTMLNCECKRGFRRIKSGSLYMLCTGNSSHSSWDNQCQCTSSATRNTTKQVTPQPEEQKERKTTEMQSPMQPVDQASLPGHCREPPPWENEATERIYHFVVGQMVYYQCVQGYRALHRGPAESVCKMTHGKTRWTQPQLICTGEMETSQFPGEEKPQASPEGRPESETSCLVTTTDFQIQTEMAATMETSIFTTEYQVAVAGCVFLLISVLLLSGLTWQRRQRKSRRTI

wild-type IL-2 (001) (ligand) was tested. Which Kd did it give?
Its Kd is 47.5 nM.
